Columns and labels:
[1] = biological target: cell surface-bound human GPC3 on GPC3+ HepG2 cells (human) (UniProt P51654); assay: FACS, control (helper) phage on GPC3+ HepG2 cells, anti-M13 then PE anti-mouse IgG; same sample in FIGS. 2A-2E
[2] = biological target: cell surface-bound human GPC3 on GPC3+ HepG2 cells (human) (UniProt P51654); assay: FACS, control (helper) phage on GPC3+ HepG2 cells, anti-M13 then PE anti-mouse IgG; same sample in FIGS. 3A-3D
[3] = biological target: cell surface-bound human GPC3 on GPC3+ HepG2 cells (human) (UniProt P51654); assay: FACS, helper phage on GPC3+ HepG2 cells, mouse anti-M13 then PE anti-mouse IgG; same sample shown in all panels of FIGS. 1A-1G
[4] = biological target: cell surface-bound human GPC3 on GPC3+ HepG2 cells (human) (UniProt P51654); assay: FACS, control mIgG1 on GPC3-positive HepG2 cells, PE anti-mouse IgG (H and L)

Substance	Median : PE-A [1]	Median : PE-A [2]	Median : PE-A [3]	Median : PE-A [4]
Negative control (helper phage)	556	106	99.4	–
control mIgG1 (antibody)	–	–	–	93.8

Source: patent US20230048360A1
